Read-outs that look alike come from different tables or passages of the source. One block for each molecule: values may come before it. Where no end group is shown, it is not given here. GST = glutathione S-transferase fusion tag
T1: SGIP1 μHD (residues 552 to 828) (Homo sapiens, UniProt Q9BQI5)
T1 construct: the SGIP1 μHD (residues 552 to 828); GST (N, cleaved yes); made in house; host or cells: Escherichia coli BL21-Gold (DE3) or Rosetta2
T1 sequence (Q9BQI5 552-828): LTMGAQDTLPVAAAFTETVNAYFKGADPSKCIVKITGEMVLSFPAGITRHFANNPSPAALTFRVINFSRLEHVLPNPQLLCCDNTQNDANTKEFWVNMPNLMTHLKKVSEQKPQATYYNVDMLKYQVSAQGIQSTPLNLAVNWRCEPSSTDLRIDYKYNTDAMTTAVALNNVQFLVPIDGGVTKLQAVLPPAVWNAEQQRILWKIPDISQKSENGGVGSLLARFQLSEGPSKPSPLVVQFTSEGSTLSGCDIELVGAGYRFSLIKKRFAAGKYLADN

B1: appendage domain of human α-adaptin (residues 711 to 955) (domain or fragment, UniProt O95782-2 711-955, looked up)
chain: IGPPIPEADELLNKFVCKNNGVLFENQLLQIGVKSEFRQNLGRMYLFYGNKTSVQFQNFSPTVVHPGDLQTQLAVQTKRVAAQVDGGAQVQQVLNIECLRDFLTPPLLSVRFRYGGAPQALTLKLPVTINKFFQPTEMAAQDFFQRWKQLSLPQQEAQKIFKANHPMDAEVTKAKLLGFGSALLDNVDPNPENFVGAGIIQTKALQVGCLLRLEPNAQAQMYRLTLRTSKEPVSRHLCELLAQQF
notes: also called α-adaptin appendage domain; source: E. coli, purified in the same manner as for the SGIP1 μHD
B2: SGIP1 μ homology domain (residues 552 to 828) (domain or fragment, human, UniProt Q9BQI5-1 552-828, looked up)
chain: T1 sequence (Q9BQI5 552-828)
notes: A SeMet-substituted form (E. coli B834(DE3)) was used only for the structure of the domain alone; also called SGIP1 μHD; μHD; source: E. coli BL21-Gold (DE3) or Rosetta2, purified (Glutathione Sepharose, 3C protease cleavage on the column, Superdex 200)
B3: Eps15-661–720 (domain or fragment, human, UniProt P42566-1 661-720, looked up)
chain: QSTDPFATSSTDPFSAANNSSITSVETLKHNDPFAPGGTVVAASDSATDPFASVFGNESF
notes: Eps15, human, residues 661-720; source: E. coli, purified in the same manner as for the SGIP1 μHD
B4: Eps15-530–896 (domain or fragment, human, UniProt P42566-1 530-896, looked up)
chain: STSSSETANLNEHVEGQSNLESEPIHQESPARSSPELLPSGVTDENEVTTAVTEKVCSELDNNRHSKEEDPFNVDSSSLTGPVADTNLDFFQSDPFVGSDPFKDDPFGKIDPFGGDPFKGSDPFASDCFFRQSTDPFATSSTDPFSAANNSSITSVETLKHNDPFAPGGTVVAASDSATDPFASVFGNESFGGGFADFSTLSKVNNEDPFRSATSSSVSNVVITKNVFEETSVKSEDEPPALPPKIGTPTRPCPLPPGKRSINKLDSPDPFKLNDPFQPFPGNDSPKEKDPEIFCDPFTSATTTTNKEADPSNFANFSAYPSEEDMIEWAKRESEREEEQRLARLNQQEQEDLELAIALSKSEISEA
notes: also called C-terminal fragment of human Eps15; source: E. coli, purified (Ni Sepharose, thrombin, Glutathione Sepharose, 3C protease, Superdex 200); not shown: GST, N-terminal, cleaved; His tag, C-terminal, cleaved
B5: Eps15-661–790 (domain or fragment, human, UniProt P42566-1 661-790, looked up)
chain: QSTDPFATSSTDPFSAANNSSITSVETLKHNDPFAPGGTVVAASDSATDPFASVFGNESFGGGFADFSTLSKVNNEDPFRSATSSSVSNVVITKNVFEETSVKSEDEPPALPPKIGTPTRPCPLPPGKRS
notes: Eps15, human, residues 661-790 (limits from the fragment's name); source: E. coli, purified in the same manner as for the SGIP1 μHD

Key:
[1] = target: T1, SGIP1 μHD (residues 552 to 828); assay: ITC of Eps15 fragments with the SGIP1 μHD; format: binding; conditions: for Kd: 50 mM Tris-HCl pH 8.0, 50 mM NaCl, global fit of two runs
Procedure: (§1) For the majority of the ITC experiments, the SGIP1 μHD, its mutants, or the FCHo1 μHD, in 50 mM Tris-HCl buffer (pH 8.0) containing 50 mM NaCl, was loaded in the sample cell, in a volume of 1.42 ml, and titrated with various Eps15-derived fragments or peptides in the same buffer, with an initial 5 μl injection and subsequent 10 μl injections, for a total of 25 injections. The titrations were performed while the samples were stirred at 310 r.p.m. at 25 °C. Each injection was followed by an interval of 4 min, to allow baseline stabilization. For the other ITC experiments indicated in Supplementary Table 2, the Eps15-derived fragments or peptides in the sample cell were titrated with the SGIP1 or FCHo1 μHD. All ITC experiments were performed on a VP-ITC microcalorimeter (MicroCal, LLC) and repeated twice, and the data were processed with the program NITPIC[42]. The two data sets from each ITC experiment were analyzed by global weighted least-squares fitting with the program SEDPHAT[43]. Figures for the ITC data were created with the program GUSSI (http://biophysics.swmed.edu/MBR/software.html). To obtain the values of the traditional stoichiometric parameter N in our ITC data analyses (Supplementary Table 2), we used the values of the parameters of the incompetent fractions of proteins and ligands. […] The values of the incompetent fractions are between 0 and 1, whereas the other parameter affecting the traditional parameter N, the number of sites, was fixed as 1 and 2, for the single- and two-site models, respectively. Thus, in the two-site model, the values of N for the first and second sites are identical in our ITC data analyses (Supplementary Table 2).

SGIP1 µHD A565E = assay: ITC of Eps15 fragments with the SGIP1 μHD A565E mutant; format: binding, human; conditions: for Kd: 25 °C, 50 mM Tris-HCl pH 8.0, 50 mM NaCl, mutant μHD in cell titrated with fragment, two runs
Procedure: as §1

SGIP1 µHD A563E = assay: ITC of Eps15 fragments with the SGIP1 μHD A563E mutant; format: binding, human; conditions: for Kd: 25 °C, 50 mM Tris-HCl pH 8.0, 50 mM NaCl, mutant μHD in cell titrated with fragment, two runs
Procedure: as §1

[2] = target: SGIP1 μ homology domain (residues 552 to 828) (human) (UniProt Q9BQI5); assay: ITC; VP-ITC, 25 °C, 50 mM Tris-HCl pH 8.0, 50 mM NaCl; for the majority the μHD (SGIP1, its mutants or FCHo1) in the cell, titrated with Eps15 fragments or peptides, for others the reverse (Supplementary Table 2); repeated twice, global fit with SEDPHAT, single-site or two-site model
Eps15-530–896 = target: B4; assay: SEC; analytical gel filtration on Superdex 200, 50 mM Tris-HCl pH 8.0, 50 mM NaCl, 5 mM DTT, 5% glycerol; fractions on SDS-PAGE; Eps15-530–896 and μHD mixed 1:2.4; Eps15-530–896, μHD and appendage domain mixed 1:3:6; conditions: both partners purified
[3] = target: B1; assay: ITC; VP-ITC; α-adaptin appendage domain with Eps15 fragments; which of the two was in the cell is not told in the text (Supplementary Table 2); conditions: both partners purified
[4] = target: B2; assay: ITC; VP-ITC, 25 °C, 50 mM Tris-HCl pH 8.0, 50 mM NaCl; for the majority the μHD (SGIP1, its mutants or FCHo1) in the cell, titrated with Eps15 fragments or peptides, for others the reverse (Supplementary Table 2); repeated twice, global fit with SEDPHAT, single-site or two-site model; conditions: both partners purified
[5] = target: α-adaptin appendage domain (residues 711 to 955); assay: ITC of Eps15 fragments with the α-adaptin appendage domain; format: binding, human
[6] = 25 °C, μHD in cell titrated with fragment, single-site model
[7] = 25 °C, μHD in cell titrated with fragment, single-site model, ± 68.3% confidence interval
[8] = 25 °C, fragment in cell titrated with μHD, single-site model
[9] = 25 °C, fragment in cell titrated with μHD, two-site model, first site
[10] = 25 °C, fragment in cell titrated with μHD, two-site model, second site

-TΔS [1, 6]: -1.785 kcal/mol
ΔG [1, 6]: -8.175 kcal/mol
ΔH [1, 7]: -6.39 ± 0.179 kcal/mol
binding to SGIP1 μHD with Ala565 replaced by Glu (in words) (SGIP1 µHD A565E): abolished the binding
Kd (SGIP1 µHD A565E): below detection limit
binding to SGIP1 μHD with Ala563 replaced by Glu (in words) (SGIP1 µHD A563E): abolished the binding
Kd (SGIP1 µHD A563E): below detection limit
Molecule: GST-Eps15-628–654: GST-tagged Eps15 fragment, residues 628–654, 5 DPF motifs ({GST}-SDPFKDDPFGKIDPFGGDPFKGSDPFA)

fold reduction of the binding against the unreplaced fragment [2]: 3.4 fold
Molecule: Eps15 two-DPF fragment, Asp of the N-terminal DPF motif replaced with Asn (peptide)

-TΔS [1, 6]: -2.159 kcal/mol
ΔG [1, 6]: -8.444 kcal/mol
ΔH [1, 7]: -6.285 ± 0.144 kcal/mol
Kd (SGIP1 µHD A565E): below detection limit
Kd (SGIP1 µHD A563E): below detection limit
Molecule: GST-Eps15-628–644: GST-tagged Eps15 fragment, residues 628–644, 3 DPF motifs ({GST}-SDPFKDDPFGKIDPFGG)

fold reduction of the binding against the unreplaced fragment [2]: 2.4 fold
Molecule: Eps15 two-DPF fragment, Asp of the C-terminal DPF motif replaced with Asn (peptide)

Molecule: B1
binding result (Eps15-530–896): binds

Molecule: B2
binding result (Eps15-530–896): binds

Molecule: B3
binding result [3]: binds

Molecule: B4
Kd ([1]; 25 °C, Eps15 fragment in cell titrated with SGIP1 μHD, two-site model, second site, 68.3% confidence interval, read-out: Kd, second site): 27300 ± 15700 nM
Kd ([1]; 25 °C, Eps15 fragment in sample cell titrated with SGIP1 μHD, single-site model, ± 68.3% confidence interval, read-out: Kd): 4500 ± 2200 nM
-TΔS [1, 8]: 3.678 kcal/mol
ΔG [1, 8]: -7.296 kcal/mol
ΔH ([1]; 25 °C, fragment in cell titrated with μHD, single-site model, ± 68.3% confidence interval): -10.974 ± 0.504 kcal/mol
-TΔS [1, 9]: -4.297 kcal/mol
ΔG [1, 9]: -9.374 kcal/mol
ΔH ([1]; 25 °C, fragment in cell titrated with μHD, two-site model, first site, ± 68.3% confidence interval): -5.077 ± 0.308 kcal/mol
-TΔS, second site [1, 10]: 2.744 kcal/mol
ΔG, second site [1, 10]: -6.226 kcal/mol
ΔH, second site ([1]; 25 °C, fragment in cell titrated with μHD, two-site model, second site, 68.3% confidence interval): -8.97 ± 1.643 kcal/mol
N (binding ratio of Eps15 fragment to μHD) ([1]; fragment in cell titrated with μHD, single-site model, ± 68.3% confidence interval): 0.76 ± 0.11
N (binding ratio of Eps15 fragment to μHD) ([1]; fragment in cell titrated with μHD, two-site model, first site (N identical for both sites), ± 68.3% confidence interval): 0.96 ± 0.04
N, second site ([1]; fragment in cell titrated with μHD, two-site model, second site (N identical for both sites), ± 68.3% confidence interval): 0.96 ± 0.04
Kd of the high-affinity site (two-site model) [4]: ~130 nM

Molecule: B5
binding to the SGIP1 μHD (in words) [1]: could not detect the clear binding
Kd ([1]; 25 °C, μHD in sample cell titrated with Eps15 fragment, single-site model, ± 68.3% confidence interval): below detection limit
binding result [3]: binds
Kd for the α-adaptin appendage domain (in words) [5]: in the nanomolar range
Kd ([5]; 25 °C, appendage domain titrated with Eps15 fragment, single-site model, global fit of two runs, ± 68.3% confidence interval): 690 ± 80 nM
-TΔS ([5]; 25 °C, single-site model): 20.041 kcal/mol
ΔG ([5]; 25 °C, single-site model): -8.401 kcal/mol
ΔH ([5]; 25 °C, single-site model, ± 68.3% confidence interval): -28.442 ± 0.319 kcal/mol

Reference: paper PMC4731787, “Structural basis for the recognition of two consecutive mutually interacting DPF motifs by the SGIP1 μ homology domain” (Scientific Reports, 2016)
